The target in test [1] is Amyloid beta (Abeta42; beta-Amyloid (1-42)) (UniProt P05067 672-713). In words: cell-based or functional assay.
Test [2] concerns the target T1, Neuropilin 1 (NRP1), R&D 3870-N1-025 (UniProt O14786-2 22-644, biotinylated at a 1:2 molar ratio).
T1 construct: Biotinylated and immobilised on streptavidin biosensor tips; also called Neurophilin 1
T1 sequence (looked up): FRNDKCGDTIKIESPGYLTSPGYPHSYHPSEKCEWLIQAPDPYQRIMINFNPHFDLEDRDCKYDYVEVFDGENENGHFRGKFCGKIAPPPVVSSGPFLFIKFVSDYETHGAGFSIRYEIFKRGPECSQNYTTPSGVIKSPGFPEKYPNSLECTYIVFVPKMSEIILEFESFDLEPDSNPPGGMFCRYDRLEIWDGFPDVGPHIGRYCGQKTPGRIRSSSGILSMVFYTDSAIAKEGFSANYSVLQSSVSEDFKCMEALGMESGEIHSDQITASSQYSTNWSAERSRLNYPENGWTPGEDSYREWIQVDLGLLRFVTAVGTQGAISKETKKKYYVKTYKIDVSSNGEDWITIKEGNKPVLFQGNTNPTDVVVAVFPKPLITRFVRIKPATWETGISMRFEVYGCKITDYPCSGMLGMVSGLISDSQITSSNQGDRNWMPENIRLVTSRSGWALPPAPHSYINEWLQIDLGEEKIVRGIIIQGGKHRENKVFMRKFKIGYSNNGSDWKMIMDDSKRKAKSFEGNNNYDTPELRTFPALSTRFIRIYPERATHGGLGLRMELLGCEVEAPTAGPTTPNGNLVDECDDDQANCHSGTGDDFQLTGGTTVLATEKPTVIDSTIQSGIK
In words: BLI, NRP1 on biosensor. On the procedure: (§1) Bio-layer interferometry (BLI) was used to assess NRP1-protein kinetics at 30° C. and 1000 rpm agitation using previously published methods. 1 mg/mL NRP1 (R&D 3870-N1-025) was biotinylated at a 1:2 molar ratio, desalted, and immobilized on the SA biosensor tip (Pall ForteBio) surface. This was followed by 1) 180 seconds baseline buffer diluent, 2) loading of the ligand (NRP1), 3) 180 seconds baseline buffer diluent, 4) 240 seconds association (analyte), and 5) 300 seconds disassociation in assay buffer. Assay buffer: SD Buffer (pH7.4 PBS, 0.05% tween20, 0.01% BSA).
(§2) The experimental data were fit with the 1:1 binding model and analyzed with global fitting using Octet Data Analysis software to calculate KD.

Test [3] concerns the target T1, Neuropilin 1 (NRP1), R&D 3870-N1-025. In words: BLI (Octet), biotinylated NRP1 on SA biosensor, 1:1 global fit. On the procedure: as §1, §2
On the technique in general: Biolayer interferometry detects binding as a change in optical thickness at a sensor tip.

A further test deals with VLDLr (8444-VL, R&D) (UniProt P98155 28-797, limits assumed). In words: ELISA on coated receptor. On the procedure:
(§3) Enzyme-linked immunosorbent assay (ELISA) was used to quantify changes in binding of RELN variants (media-derived full-length or CTR-RELN) to either VLDLr or ApoEr2 following an optimized version of a previously published protocol (6). Briefly, ELISA strips (DY008, R&D Systems) were coated with one ng/μL (100 μL/well) of VLDLr (8444-VL, R&D) or ApoEr2 (TP320903, OnGene) receptors diluted in 25 mM Tris HCl, 140 mM NaCl, […], two mM CaCl₂), pH 7.4 (TBS-C buffer). After 18 h at four ° C. incubation, plates were blocked one h with three % BSA (22070008-6, Bioworld), 0.05% Tween-20 (Sigma Aldrich) TBS-C buffer. We assessed binding via incubation with 100 μL/well of serial dilutions of recombinant RELN protein (Ser1221-Gln2666, 8546-MR-050, R&D) or RELN variants in TBS-C buffer for one hour at room temperature. For detection, we used goat anti-mouse RELN primary antibody (LS-C793521-100, LS-Bio, 1:2,000, 100 μL/well) as primary antibody for one h at R.T. and (1:10,000; 100 μL/well, donkey anti-goat IgG H&L, HRP, ab6885, Abcam) as secondary antibody for 30 min. at R.T. Between each of the previous steps, plates were washed four times with TBS-C buffer (200 μL/well). Plates were washed three times prior to initiating the colorimetric reaction (DY008, R&D Systems). Stop solution (50 μL/well, DY008, R&D Systems) was added upon five min. incubation and the absorbance of the samples was measured at 450 nm using the Synergy 2 microplate reader (BioTek Instruments). Processing and analysis of the data was done using Gen5 1.11 software and GraphPad Prism, respectively.

Test [4] concerns the target T2, ApoEr2 (TP320903, OnGene) (UniProt Q14114 33-963, limits assumed).
T2 sequence (looked up): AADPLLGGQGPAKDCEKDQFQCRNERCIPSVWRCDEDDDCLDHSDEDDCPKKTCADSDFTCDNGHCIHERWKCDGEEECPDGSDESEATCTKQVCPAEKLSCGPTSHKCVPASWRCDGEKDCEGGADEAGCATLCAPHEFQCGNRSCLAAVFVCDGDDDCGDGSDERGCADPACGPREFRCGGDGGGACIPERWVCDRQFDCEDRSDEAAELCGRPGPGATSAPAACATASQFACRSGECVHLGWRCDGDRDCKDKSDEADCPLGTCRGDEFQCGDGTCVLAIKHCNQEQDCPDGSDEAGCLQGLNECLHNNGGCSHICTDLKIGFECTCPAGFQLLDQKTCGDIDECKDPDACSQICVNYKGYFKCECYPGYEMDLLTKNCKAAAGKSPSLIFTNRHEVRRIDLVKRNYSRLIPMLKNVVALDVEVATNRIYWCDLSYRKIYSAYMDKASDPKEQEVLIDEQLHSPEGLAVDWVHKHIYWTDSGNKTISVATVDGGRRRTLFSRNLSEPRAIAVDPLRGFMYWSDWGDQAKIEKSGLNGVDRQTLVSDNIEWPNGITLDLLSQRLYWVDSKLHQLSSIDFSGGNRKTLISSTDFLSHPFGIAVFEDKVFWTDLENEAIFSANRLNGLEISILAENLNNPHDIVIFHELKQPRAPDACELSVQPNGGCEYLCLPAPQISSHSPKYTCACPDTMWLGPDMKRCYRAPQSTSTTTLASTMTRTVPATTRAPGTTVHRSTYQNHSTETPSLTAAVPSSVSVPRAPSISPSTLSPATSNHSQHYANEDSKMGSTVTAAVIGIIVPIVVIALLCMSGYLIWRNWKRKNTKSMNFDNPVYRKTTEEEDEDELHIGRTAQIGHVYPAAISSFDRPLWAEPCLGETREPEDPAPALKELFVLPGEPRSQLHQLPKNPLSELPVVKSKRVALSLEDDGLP
As to the kind of experiment: ELISA on coated receptor. On the procedure:
as §3
(ELISA stands for enzyme-linked immunosorbent assay.)

Where a chain is given by its changes, count along the chain named. Numbers in names are those of the source.

Amyloid beta (Abeta42; beta-Amyloid (1-42)), sequence (P05067 672-713 limits assumed): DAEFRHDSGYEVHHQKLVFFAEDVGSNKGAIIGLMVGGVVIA

As to RKQNYMMNFSRQHGLRDFYNRRRR [Reelin CTR peptide H3447D short], the “Thioflavin T fluorescence assay of Abeta aggregation, fold aggregation against H3447K short” value in test [1] was approximately 3 fold.

B1: Fc-fusion CTR-RELN WT (184I pfcn-huIgG2-C-termH3447WT) (Fc fusion)
chain: APLERKSSVECPPCPAPPVAGPSVFLFPPKPKDTLMISRTPEVTCVVVDVSHEDPEVQFNWYVDGVEVHNAKTKPREEQFNSTFRVVSVLTVVHQDWLNGKEYKCKVSNKGLPAPIEKTISKTKGQPREPQVYTLPPSREEMTKNQVSLTCLVKGFYPSDIAVEWESNGQPENNYKTTPPMLDSDGSFFLYSKLTVDKSRWQQGNVFSCSVMHEALHNHYTQKSLSLSPGARTSTRKQNYMMNFSRQHGLRHFYNRRRR
notes: also called Fc-WT
For the molecule B1, the “fold less affinity than VEGF” value in test [2] was 100 fold. Besides, in test [3], the Kd is 610 nM, the koff stood at 0.00573 s⁻¹ and the kon was 9400 M⁻¹ s⁻¹.

B2: Fc-fusion CTR-RELN H3447R (184J pfcn-huIgG2-C-termH3447R) (Fc fusion)
chain: B1 chain with H252R
notes: also called Fc-H3447R
B2: the “fold affinity against wild-type CTR-RELN” value in test [2] came out at 10 fold. Also, in test [3], the Kd came to 79.3 nM, the koff stood at 0.00102 s⁻¹ and the kon was 12900 M⁻¹ s⁻¹.

B3: C-terminal region of RELN (CTR-RELN) WT recombinant peptide, long (peptide)
peptide: RKQNYMMNFSRQHGLRHFYNRRRRSLRRYP
notes: also called WT long; C-terminal RELN WT uncleaved
With B3, the binding result in the test with VLDLr (8444-VL, R&D) is reported as “no binding”; in test [4], “no binding”.

B4: C-terminal region of RELN (CTR-RELN) H3447R recombinant peptide, long (peptide)
peptide: B3 peptide with H17R
notes: also called H3447R long; C-terminal RELN H3447R uncleaved
Turning to B4, the binding result is “no binding” with VLDLr (8444-VL, R&D) and “no binding” in test [4].

The Kd is the concentration at which binding is half-saturated. In general, koff refers to the rate constant with which the complex falls apart. As usually defined, the kon is a measure of how fast the partners come together.

The record behind these values is US20260139017A1 (GENERAL HOSPITAL, published 2026).
